Results on ten molecules are retold here after paper PMC10053369, “Recombinant Analogs of Sea Anemone Kunitz-Type Peptides Influence P2X7 Receptor Activity in Neuro-2a Cells” (Marine Drugs, 2023).

The test system of test [1] is Neuro-2a cells. Put plainly: Cytoprotection against ATP-induced cell death (MTT assay). It is filed as cell-based, mouse. As to conditions: 4 mM ATP, 48 h. The protocol:
(§1) Neuro-2a neuroblastoma cells (ATCC® CCL-131™) were obtained from American Type Culture Collection (Manassas, VA, USA). The cells were cultivated in DMEM medium (BioloT, St. Petersburg, Russia) supplemented with 10% of fetal bovine serum (BioloT, St. Petersburg, Russia) and 1% penicillin/streptomycin (BioloT, St. Petersburg, Russia) at 37 °C and 5% CO2. Initially, cells were incubated in cultural flasks until sub-confluent (~80%). For testing, Neuro-2a cells were seeded in 96-well plates and experiments were started after 24 h.
The cytoprotective effect of peptides was assessed in Neuro-2a cells using the MTT assay. In brief, an aliquot (180μL) of cell suspension with a nominal cell density of 3 × 10^4 cells/well was dispensed into 96-well plates. The cells were incubated for 24 h in a humidified atmosphere containing 5% CO2 to allow cell attachment. At the end of the preincubation period, ATP (Sigma-Aldrich, St. Louis, MO, USA) was added to the cells at a concentration of 4 mM. Studied peptides were added to the cells at concentrations of 0.1, 1.0 or 10.0 μM for 1h prior to the addition of ATP. After incubation for 48 h at 37 °C cell viability was detected using the MTT as described previously. The standard P2X7 inhibitor, A438079 (Sigma-Aldrich, St. Louis, MO, USA), at a concentration of 10 μM was used as a positive control.
(§2) All data were obtained in three independent replicates and calculated values were expressed as mean ± standard error of the mean (SEM). The Student’s t-test was performed using SigmaPlot 14.0 (Systat Software Inc., San Jose, CA, USA) to determine statistical significance.
(In general: Tetrazolium dyes change colour on reduction, which living cells bring about.)

Test [2] concerns P2X7 in Neuro-2a cells. Put plainly: ATP-induced Ca2+ influx (Fluo-8 AM). As to conditions: 1 mM ATP. It is filed as cell-based, mouse. The method, then: as §1
(§3) Neuro-2a cells were seeded in 96-well plates at a density of 4 × 10^4 cells/well and incubated in DMEM for 24 h at 37 °C, 5% CO2. Then the cells were washed twice with culture medium and loaded with 5 μM Fluo-8 AM (Abcam, Cambridge, UK) dye and 1 μM Pluronic® F-127 (Sigma-Aldrich, St. Louis, MO, USA), and incubated for 40 min at 37 °C in HBSS: 140 mM NaCl, 5 mM KCl, 0.8 mM MgCl2, 2 mM CaCl2, 10 mM glucose, 10 mM HEPES, pH 7.4. Then the cells were washed two times with the same solution but without the fluorescent dye and treated with the studied peptides for 30 min at RT in the dark. In some experiments Ca^2+-free medium was used: 140 mM NaCl, 5 mM KCl, 0.8 mM MgCl2, 10 mM glucose, 10 mM HEPES, 5 mM EGTA, pH 7.4. ATP (1 mM final concentration) was added using a microinjector (20 μL/well) 10 s later the baseline recording and the readings were taken up to 50 s in 1 s intervals. The standard P2X7 inhibitor, A438079 (Sigma-Aldrich, St. Louis, MO, USA), was used as inhibitory control. Ionomycin (Sigma-Aldrich, St. Louis, MO, USA) and BHQ were used to generate a generic calcium signal in cells. 2,5,-di(t-butyl) hydroquinone (BHQ) was synthesized and kindly provided by Dr. Polonik S.N. (PIBOC FEBRAS). Fluo-8 was excited at 485 nm, and the emission at 520 nm was measured with a PHERAstar®FS plate reader (BMG LABTECH, Ortenberg, Germany). The data were processed by MARS Data Analysis v. 3.01R2 (BMG Labtech, Ortenberg, Germany). Mean values and standard error of peak height calcium were calculated.
as §2

Test [3] deals with Neuro-2a cells. Put plainly: [Ca2+]i in Ca2+-free medium (Fluo-8 AM). It is filed as cell-based, mouse. As to conditions: for [Ca2+]i in Ca-free medium: ionomycin 10 μM in the presence of ATP 1 mM, or BHQ 50 μM, n = 6. The method, then:
as §3
The following supporting information can be downloaded at: https://www.mdpi.com/article/10.3390/md21030192/s1, Figure S1: The RP-HPLC elution profiles of Kunitz peptides: HCRG1 (a), HCRG2 (b), and HCRG7 (c), on a Jupiter C4 column (Phenomenex, USA), equilibrated by 0.1% TFA, in a gradient of acetonitrile concentration (0–70%) for 70 min at 1.5 mL/min. MALDI mass spectra of the average molecular weight of peptides are shown in the insert. Black solid lines accentuate fractions from which the peptides were isolated. Figure S2: 1H NMR spectra of HCRG1 (a) and HCRG7 (b). Figure S3. […]

In test [4] the test system is cultured neurons of the dorsal horn of the spinal cord. As to conditions: cited from earlier work. From the text: Activated P2X7 has also been reported to alter reactive oxygen species (ROS) in microglia/macrophages as was shown, for example, in primary rat microglial cells. In cultured neurons of the dorsal horn of the spinal ...
In test [5] the target is T1, hP2X7 (47–334 a.a., extracellular domain, 36.8 kDa) (Homo sapiens, UniProt Q99572).
T1 construct: hP2X7 (47–334 a.a., extracellular domain, 36.8 kDa); purchased Abbexa LTD, Cambridge, UK abx167020
T1 sequence (Q99572 47-334): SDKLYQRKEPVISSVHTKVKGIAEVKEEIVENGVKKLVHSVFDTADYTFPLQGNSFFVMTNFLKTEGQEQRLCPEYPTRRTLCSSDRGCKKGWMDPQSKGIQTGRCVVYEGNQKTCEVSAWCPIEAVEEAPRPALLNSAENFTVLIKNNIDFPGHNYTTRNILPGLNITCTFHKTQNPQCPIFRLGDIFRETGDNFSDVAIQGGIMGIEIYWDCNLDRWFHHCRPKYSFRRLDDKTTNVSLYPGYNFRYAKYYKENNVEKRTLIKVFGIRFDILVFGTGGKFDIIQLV
Put plainly: Surface plasmon resonance (Biacore 3000). It is filed as binding. As to conditions: model: binding 1:1 (Langmuir), 25 °C, HBS-N pH 7.4, n = 3. The method, then: SPR analysis was performed at 25 °C using a Biacore® 3000 optical biosensor (GE Healthcare, Chicago, IL, USA) and CM5 sensor chips. HBS-N (10 mM HEPES, 150 mM NaCl, pH 7.4) (Cytiva, Chicago, IL, USA) was used as a working buffer for the immobilization of hP2X7 (47–334 a.a., extracellular domain, 36.8 kDa) (abx167020 Abbexa LTD, Cambridge, UK). The carboxyl groups of the dextran biosensor chip were activated for 5 min by introducing a 1:1 mixture of 0.2 M 1-ethyl-3-(3-dimethylaminopropyl)carbodiimide hydrochloride (EDC) and 0.05 M N-hydroxysuccinimide (NHS) at a rate of 5 µL/min followed by a 1 min wash with HBS-N buffer at the same flow rate. Next, hP2X7 (15 μg/mL) in 10 mM sodium acetate (pH 5.0) was injected into the working channel of the biosensor for 10 min at a flow rate of 5 μL/min. The final level of immobilization was 12300 RU (12.3 ng of protein). The control channel without immobilized P2X7R was used to correct the effects of the nonspecific binding of analytes to the chip surface.
Lyophilized peptides were prepared as 100 μM stock solutions in HBS-N buffer. Experimental peptide samples were prepared in the range of 5–100 μM. The samples were injected through the channels of the biosensor (working and reference) at a flow rate of 10 μL/min for 6 min. The dissociation of the formed peptide/P2X7 complexes was recorded for at least 6 min from the moment of injection at the same flow rate after the injection of the sample. After each cycle of the biosensor, the bound analyte was removed by double injection of the regenerating solution (2 M NaCl, 1% CHAPS) at a flow rate of 30 μL/min for 30 s.
SPR sensorgrams were processed in Biacore 3000 Evaluation Software v.1.0 (GE Healthcare, Chicago, IL, USA) and BIAevaluation Software v. 4.1.1 (GE Healthcare, Chicago, IL, USA) using “1:1 binding (Langmuir)” and “two-state binding (conformational change)” data processing models.
The 1:1 (Langmuir) binding model is a 1:1 interaction model between a compound (C) and an immobilized protein (P) and is equivalent to the Langmuir isotherm for surface adsorption: C + P ↔ CP.
The two-state binding (conformational change) model describes the 1:1 binding of a compound (C) to an immobilized protein (P) followed by a conformational change in the complex (CP ↔ CP*). It is assumed that the conformationally changed complex can dissociate only by the reverse conformational change: C + P ↔ CP ↔ CP*. The final kinetic parameters were obtained from the models that best agree with the experimental curves for the minimum of the obtained value of chi2. The equations describing the models used are as follows: • (1) 1:1 (Langmuir) binding: Kd = koff/kon, where Kd is the equilibrium dissociation constant, koff is the dissociation rate constant, kon is the association rate constant. • (2) Reaction of two states (with conformational change): Kd = koff1/kon1 × (1 + kon2/koff2) − 1, where Kd is the equilibrium dissociation constant, koff1 is the dissociation rate constant, kon1 is the association rate constant, kon2 is the direct association rate constant for the CP ↔ transition CP*, koff2 is the inverse dissociation rate constant for the CP ↔ CP* transition.
The model describing the interaction was chosen according to the lowest chi2 parameter’s value. Chi2 is a measure of the average squared residual between the experimental data and the fitted curve.
A general note: Surface plasmon resonance follows binding to a sensor surface in real time, without labels.

The target in test [6] is T2, hP2X7 (47-334 a.a., extracellular domain, 36.8 kDa) (human) (UniProt Q99572).
T2 sequence: T1 sequence (Q99572 47-334)

In test [7] the target is T2, hP2X7 (47-334 a.a., extracellular domain, 36.8 kDa) (human). This is another data set of the same source.
For test [8] the target is unchanged. Put plainly: SPR; Biacore 3000, hP2X7 extracellular domain amine-coupled to a CM5 chip (12300 RU), peptides 5-100 uM injected as analytes at 10 uL/min for 6 min, 25 °C, HBS-N (10 mM HEPES, 150 mM NaCl, pH 7.4); fitted with 1:1 Langmuir or two-state (conformational change) model. The arrangement: kon2 (two-state model, step CP to CP*): unit not given here.

Positions of bridges follow the written chain, without caps; N, C: chain ends. No end group written: not given here.

For `Nc1ncnc2c1ncn2[C@@H]1O[C@H](COP(=O)(O)OP(=O)(O)OP(=O)(O)O)[C@@H](O)[C@H]1O` [ATP, adenosine triphosphate, reference compound], the “increase in percentage of dead cells vs cells without ATP” value in test [1] is reported as “up to 40%”. Moreover, the “intracellular Ca2+ after ATP” value in test [2] was “strong sustained increase in [Ca^2+]I”. The “[Ca2+]i response to ATP in Ca2+-free medium” value in test [3] (1 mM ATP, Ca2+-free medium) was “did not cause an increase in [Ca^2+]I”.
Take `CC(C)(C)c1cc(O)c(C(C)(C)C)cc1O` [BHQ, 2,5,-di(t-butyl) hydroquinone]: in test [3], the “[Ca2+]i in Ca-free medium” value was “led to a significant increase in [Ca^2+]I”.
In the case of `CC(C)(C)[N+]([O-])=Cc1ccccc1` [N-tert-butyl-α-phenylnitrone], in test [4], the “ATP or Bz-ATP-induced ROS production” value is reported as “eliminated”.
In the case of `C[C@H](CCC(=O)O)C[C@H](C)C[C@H](C)C(=O)/C=C(\O)[C@H](C)C[C@H](C)C/C=C/[C@@H](C)[C@@H](O)[C@@H](C)[C@@H](O)C[C@@H]1CC[C@@](C)([C@H]2CC[C@@](C)([C@@H](C)O)O2)O1` [ionomycin], the “[Ca2+]i in Ca-free medium” value in test [3] is “led to a significant increase in [Ca^2+]I”.
Turning to “GSICLEPKVVGPCTAYLRRFYFDSETGKCTPFIYGGCEGNGNNFETLRACRAICRA (disulfide 4-54, 13-37, 29-50) [HCGS1.10]”, in test [5], the Kd came out at 26.3 µM. Also, the koff entry in test [5] (same value printed under koff1 and koff2, average ± SD) is “(4.5 ± 0.52) × 10^−3 c^−1”. In test [5] (same value printed under kon1 and kon2, average ± SD), the kon entry is “(1.71 ± 0.19) × 10^2 mole^−1c^−1”.
In the case of HCGS1.10 (peptide), the decrease of the 1 mM ATP-induced rise in intracellular Ca2+ (Fluo-8AM) in mouse Neuro-2a cells with endogenous P2X7, peptide 0.1-10 uM pre-incubated 30 min; value at 0.1 uM in test [6] came to 43.8%.
Molecule HCGS1.19 (peptide) gave a decrease of the 1 mM ATP-induced rise in intracellular Ca2+ (Fluo-8AM) in mouse Neuro-2a cells with endogenous P2X7, peptide 0.1-1 uM pre-incubated 30 min in test [6] of 54.8%. This molecule yielded a 4 mM ATP-induced uptake of YO-PRO-1 by mouse Neuro-2a cells (P2X7 macropore), peptide 0.01-10 uM pre-incubated 10 min; dye uptake reduced to the printed percent in test [7] of 56.2%.
The corresponding values for HCGS1.36 (peptide) are 53.9% and 47.8%.
In test [6], HCRG1 (peptide) yielded a decrease of the 1 mM ATP-induced rise in intracellular Ca2+ (Fluo-8AM) in mouse Neuro-2a cells with endogenous P2X7, peptide 0.1-10 uM pre-incubated 30 min; value at 0.1 uM of 57.5%. In test [8], the koff1 (two-state model, step CP to C + P) is 0.0437 c^−1; the koff2 (two-state model, step CP* to CP) was 0.0015 c^−1; the kon1 (two-state model, step C + P to CP) amounted to 920 mole^−1c^−1; the kon2 (two-state model, step CP to CP*) came out at 0.0085.

B1: APHC3 (peptide)
chain: GSICLEPKVVGPCTAYFPRFYFNSETGKCTPFIYGGCEGNGNNFETLRACRGICRA
Consider B1, for which the decrease of the 1 mM ATP-induced rise in intracellular Ca2+ (Fluo-8AM) in mouse Neuro-2a cells with endogenous P2X7, peptide 0.1-10 uM pre-incubated 30 min; value at 0.1 uM in test [6] came out at 53.2%.

For orientation: Kd means the concentration at which binding is half-saturated.
